This note sets out measurements from paper PMC4972253.

As usually defined, the stoichiometry N is the number of molecules, sites or subunits per partner or assembly.

Assay [1] addresses BG505 NFL trimer (Wt, unfixed) (HIV-1, subtype A, strain BG505). The assay is described as follows: native gel or EMSA. On the technique in general: A gel shift assay detects complexes by their altered migration in electrophoresis.
The target in a further assay is VRC01 (human). In words: BLI.
Assay [2] addresses JRFL NFL trimer (Wt, unfixed) (HIV-1, subtype B, strain JRFL). In words: native gel or EMSA.

Chain of VRC01 (human) (light, as listed by the source, chain 2 of 2, other chains not shown): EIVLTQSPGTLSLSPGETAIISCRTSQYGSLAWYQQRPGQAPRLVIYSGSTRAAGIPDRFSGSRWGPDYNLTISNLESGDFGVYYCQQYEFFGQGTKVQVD

“BG505 NFL trimer (Wt, unfixed) (domain or fragment)” came in with a stoichiometry N in assay [1] of 3. Moreover, the relative binding (% of the day 0 response) after 7 days at 37°C in PBS with VRC01 (human) was found to be 90%.
The substance “JRFL NFL trimer (Wt, unfixed) (domain or fragment)” returned a stoichiometry N in assay [2] of 3.
